Test results published in the DeepSol protein solubility set.

assay: soluble on expression in E. coli; label from the status in PepcDB or PDB records

Soluble on expression in E. coli, not soluble:
MGSDKIHHHHHHMDIIREITPLSEKDCFYIVDRRKTEFTYPIHCHSEYELNFIEHAPGVRRVVGDSAEVIGEYELVLITGKELEHVWEQNACKSPLIHEITIQFSPDLFGKNLLEKNQFNSIRKMLEKAQCGISFPMSSILKVYHLLEKLVSEEQSFYAVINFLTILYELSVEENYKVLASSSFAKITDIHSESRRIQKVQNYINERYQQDIRLNQLAELVGMAPSAFSRFFKLRTGKTLSDYITDIRIGYAARMLVDTQRSIAEICYDCGFNNLSNFNRIFKKKKNCSPKEFRDNYKKTKIIV
MGSDKIHHHHHHMDITPFLDKKSKTPLYEQLYTFFKQEISHARITKGTRLPSKRRLSSLLDVSTATIERAYEQLTAEGYVKSKPKIGWFAAEVEPGFPTAPDHFQQSVQPGLHQKNAPAIDFHQGSVDPTLFPFNAWRKSIVKSLDRYSGSFHTSGDPQGEYELRHMIARFVRLSRGVNCEPGQIIIGAGTTVLLQNLCLSLKPGTKIGFEEPGFHRSRRMFEANHMDVTPICSDAEGVLPDELYRQNPYLMYTTPSHQFPIGTIMTITRRQELLAWAAETNSFIIEDDYDGEFRYSGHPIPSLQGLDPNGRVIYLGTFSKSLLPSLRLSFMIVPPELMEPIQNNVQLMKQTVSAHSQLALADFIETGEWQKHINRMRSLYRKKHAVLLEAIRSELGNTVEILGKNSGLHILLRLLFPASEEEAIQAAADHGVTLYPVSPSYIEQTPFTSVLIGYGGLSEEDIRLGIQKLKTAWAPLISSY
MGSDKIHHHHHHMDLLELKAFVFAVQTGSITQAAFQLGRVQSSVSLRIKQLETELGVELLSRDRGGVRTTARGQILYDYATRILALAQEAKGEVMSPNTGEIVRLGTIETISPDCIDSLVRLLSGFDGMGVDVYVDGALSLVESLREGRIHAAIVGAGFAPPECIRIPLYGEAMVLISSLKYPRIDLVNQIANEIFLVCKKESACSRHLAMLFMEGGFQPARISECGSFSILMSSVVRGMGIALVPLSAVLGSAHEKQVLIHPLSGHFSTFQVEFVCPQPKGRPILERLIEKISQEFVGQKPN
MGSDKIHHHHHHMDNDSTPRGTVCVTGATGYVGGRLVPRLLDHGWRVRALVRTPAKLLCRPWARHPRLDIIRGDLDDACSLVPALEGCDAVFYLVHSMNPHVTGRDTFAKADRAAASNMVRACDEARPGRIIYLSGLVPEGEELSPHLRSRAEVADILARGETPLTVLRAAQILGSGSASFEMVRYLVDRLPVMLTPRWVHSLCQPIAISNVLGYLEGCLDHPETMGQTYDIGGPDILSYRELFDIFAEVAQLRRRTIIPVPVLSPELSAHWINLVTPIPKALATPLIQGLRNRVVCADDRIRDIIPQRLLSCREAIGKALDRVREQSVPTCWTDAGRPDMPEWMTCGDASYAGGDLLECAYAIQVEAPPETVWKPVSAIGGETGWYHGDLLWRLRGMLDKLVGGPGLRRGRRHPTDIGVGDALDFWRVLDVRPGERLLLLAEMKVPGDALLEFRLAPTATGGTELWMLSWFLPRGLAGLAYWWALYPLHKGLFKGMLCGLAAATGAPVSREPWALPPRREFACALPLTDASAPGRRDTTAQ
MGSDKIHHHHHHMDPAPSLGCSLKDVKWSSVAVPLDLLVSTYRLPQIARLDNGECVEGLRENDYLLIHSCRQWTTITAHSLEEGHYVIGPKIEIPVHYAGQFKLLEQDRDIKEPVQYFNSVEEVAKAFPERVYVMEDITFNVKVASGECNEDTEVYNITLCTGDELTLMGQAEILYAKTFKEKSRLNTIFKKIGKLNSISKLGKGKMPCLICMNHRTNESISLPFQCKGRFSTRSPLELQMQEGEHTIRNIVEKTRLPVNVTVPSPPPRNPYDLHFIREGHRYKFVNIQTKTVVVCCVLRNNKILPMHFPLHLTVPKFSLPEHLVKGESWPETLVHHWLGICQEQFDIDEYSRAVRDVKTDWNEECK
MGSDKIHHHHHHMDRQKTSQTVPAGDADDGDDTSVDEKRSPLILTEQVWRKRPAYSSPLPDDKSITLSRWTIPEQPTPVEFRSDGNEDSHIITYSLRQSSVDFWMEGQRVSNGRVTPHAVLMTGPGQPGRAVFYKVFDSIRMYLPQALLAECHEGAYGRPPNQDIVLSHPHFVADQKVRHLVEALVLVDQTDGAMGRIYVDSIGLAIGARLIALHGERRNPVDRSQGLSAWRLRHVIEYIDAHLSSPIGLAELANVAGLSRMHFARRFREVTGQTPHQYVLRCRIMRAQQLLCSPALSVTDIASALAFKTTAHFSTVFRHIVGESPTQWRKRLR
MGSDKIHHHHHHMDTAKTKPFDEMFLQDEVIRPIYAEYAAWLQDVPHQQLESKRQEAELLFRRVGITFNVYGEDAGAERLIPFDVVPRILSASEWARLSDGAIQRVKALNMFLHDVYHDQEIIKAGIVPSSILANAQYRPEMFGVDVPGGVYAHIAGVDLVRTGENDFYVLEDNLRTPSGVSYMLENRKMMMRLFPELFRRYPVAPVEHYPQVLLNNLRAVAQAGVHEPTVVLLTPGAYNSAYFEHAFIAQQMGIELVEGQDLFVRNNAVYMRTTEGPKRVDVIYRRIDDDFIDPLSFRPDSMLGVPGLLSVYRNGGVTLANAVGTGVADDKDTYIYVPEMIRFYLGEEPILSNVPTYQLSKADDLKYVLDNLAELVVKEVQGSGGYGMLVGPAASKQELEDFRQRILANPANYIAQPTLALSTCPTLVETGIAPRHVDLRPFVLSGKTVSLVPGALCRVALREGSLVVNSSQGGGTKDTWILKD
MGSDKIHHHHHHMDVLQKEIDEVYATHPTAHEALDNGIVEQHQQFVRSLTEVNGGCAVISDLSNRKSYVTVHPWANFLGLTPEEAALSVIDSMDEDCIYRRIHPEDLVEKRLMEYKFFQKTFSMSPGERLKYRGRCRLRMMNEKGVYQYIDNLVQIMQNTPAGNVWLIFCLYSLSADQRPEQGIYATITQMERGEVETLSLSEEHRNILSEREKEILRCIRKGLSSKEIAATLYISVNTVNRHRQNILEKLSVGNSIEACRAAELMKLL
MGSDKIHHHHHHMDYLTTNKIAWDARTRVHLTSDFYDVEGFLSGKISLTEIELNELAVAGKSLLHLQCHFGLDTLSWARMGAKVTGVDLSEVAIAEACKLAQQTQLSAEFICSDVYSVVGKVEPQDIVFTSYGAIVWLPDLTLWAQTIAACLKPGGQFYMAEFHPAQQLFDGYSYFNRGEPDIEQEGTYTENASDDQQTLMCWSHSLSEVINALLQAGLELVFFHEFAFSPYNCFEGLEAQADGRYVLIHQGQQVPLVYSISARKPV
MGSDKIHHHHHHMDYNQTVLSHLQKFWKHHDIKGFTWTLGRIVEELPDFQVFQVIPNHEDEPWVYVSSGIGQFLGQEFFIISPFETPEHIETLAMLASASMHYPDQFQLGKTVNIGRPWVEQSSFRHFLISLPYPYGQELEYMDNVRFFWLLPITQTERLFLNTHSVEELETKFDEAGIDYLDINRASTVWQAG
MGSDKIHHHHHHMEANDLLTLGLGLTAPWRVVDQSLDLSKQPSELRLEVEAARGERYPCPACGALCKAHDFAEFSWRHLNFFQHHCLIKARVPRVRCPEHGLKRVNVPWARPGSGFTLLFEQAVMLLAREMPVNAVARYVGVTDKRIWRVVTHYVLKGMGKLDLSRLCGIGLDETATKRGHHYVTIFVDMDRESRPVVFATPGKGKECLKTFAAYLKGRQGNPENVVEVVCDMSPAFLSAAEATFRNAAVTVDWFHVVQIFTKALDEVRRLEAREVILPKAARWAVLKGLETWRIEEQVAALKELEERGLATATAFRVKELLRWVRKADTRQGARWRATRFFEFARELAGDSVLLAPVRKALNTFEDHLPRILRRWDSLLSNARLEGLNGLFQAARSRARGYRNVTTFITMIYLIGAPITQLLEA
MGSDKIHHHHHHMEDLNSLYYFTQVVEHGGFAPAGRALDMPKSKLSRRIADLEDRLGVRLLNRTSRHCSLTEIGQAYYNRCLAMRVEAEGAAEIIERNRSEPRGLVRISCPTTLLNSWVGPMLTRYMLKYPQVELFIESTNRRVDLLHEGFDIALRVRFPPLENTDMVMKVLSNSTQCLVGQPQYLAQLPKGFDPQLLGTLPSVHWGSAQREYQWELFQGEDNSRSIVIPHTPRMVTDDLFALRHFVVAGVGIAHLPRVAVREDLAAGRLVELIPDWHPRCGIVHAIFPSRRGLLPSVRALIDHLAEEFAISDMA
MGSDKIHHHHHHMEEFVFFIEGNVNHPLTIDPTVWIFDERKVDLTTYFQELATKEDEMTAYKKAISKQWDKEITKGSEPPRPDTNGNVIKYEKQKLIHGSFGMPFMPFLKNSEPDSDAKTVTVVCADGNEHSFPIDEAAQFILGFAKNGSPLREDGPVHVYFGDGSNESTPIINVIRFSVS
MGSDKIHHHHHHMEELRSGSSVCRVSRRGAFVSSLRISNMEILKRSSDRYATHGGMAILIPYADIVSDGTYTWHGRRYQLPRNAGYEGNFTDSIHGLVKSAYFSIIYKDVDSILLKYALERSGYPSRLNIYVNYAVQHDSLGTVISVENTGNNEAPLVCGSHPYFLYRDFWFIKFSNSAVRLFSGGDLSLRKDESVNFLTKKIEGYYDDSFYSDGMILLVSSDRMIELDRRSMPYFEVYDGKYAERRSLAVEPMTGAPNAYNNKIGLIDLKPGETFLCGFDIRVASI
MGSDKIHHHHHHMEEVIKLNSVDQYNKMYGLETLHPLVTVVDLSKATVFPTHFTLNYGLYALFLKQTKCGDLRYGRQMYDYQEGTVTSFAPGQVVEVKLNDGVRPMSHGILFHPDLIRGTSLGQEIKHYSFFSYASNEALHLSDDEKKIFQDCLDKVQQELSRPIDKHSKRLIARNIELLLDYCMRFYERQFVTRSKVNKDVLMKFEDLLDVYFQSEQSPNEKLPTVKYFADKVNLSSNYFGDLIKKETGKTAQEYIQGKIINIAKERILASEKTVSEIAYELGFQYPQHFTRIFKKVVGCTPTEYRVIQV
MGSDKIHHHHHHMEHIFQAHSPGEAGEILQQNWEHWLMTTARWREILTYDPRPATGCSPKEILWTKNKAQLYHYQCSSERRYRTPVLMIYALINRPYVLDLTPGSSLVEYLVNEGFDVYLLDWGEFEWEDRDITYADLVYDYIATAARKVARSAGSKEISIIGYCMGGTMSTLYAALFDRPVLKNLVYLAAPIDFNRAGTYDVWLKAPGYDPDRIADTMELVPKSFIDWGTRMLNPLANYWGTYTRLWKTLEEGKSVHFWKVLNKWSSDNINFPGGAYRDWIRDFYQGNKLIKNQVVLRGKRVQLQRIKANILAMVGLRDHIVMPHQTAAALTYLGGNDKTYMEFPVGHGGLVLGETARMRVFPEIAYWLGERSEELSEE
MGSDKIHHHHHHMEIFDYVILGAGLGGLSAAACLTRQGYRVVVLEQHYLPGGCCHTFDYGEYHFCADVHYISQCGSGQTITQFLDYIHQNVPFNSLDSDCIDRVITPEADFKIPLGWENLRSRLLSTFPEEAGAINHYCNEIQQLHQEIRNLVQEVRWYDQKLSDWLKLPKYLNLFWKRNWTLQDLYNHVGLSPKLQAVLAGQSGDYALPPQEIALLTHTSLVWDYSEGAYYPKHHFKHLVDTIADVITAGGGVIKYSTPVSHIQVSNHSVHSVLADGNSYRASKAYISDLDPKLTVELMHDITALSQKEYKRLTNYQYSASAFNIYLGLDSRFDPQRYGIGNWNVWYYPTGDLNREYQQQLEGDFSQPWIFLSCPTMKSSEPGMGPEGHHVLEIATVCSYEPFEHLYKSNPKAYKAKKREFYQQIMTSVRDLIPDVDKYARMKVYGTPTTSEFYLGQPQGNIYGAKLVPKQVGLNRLGYMTELPNLFLVGASAGYPSVPGVIGNGMQVVELLTGQSVWHKAAERPQSLVAIG
MGSDKIHHHHHHMEIKCIITDDEPIARKGLRRHIGKIDFLTIVGECEDAIQLNNMLNSVQADLLFLDIEMPDMSGLDFLESAQNAPKVIITSAYERYALRGYEFDVVDYLLKPISFSRFLKSVNKAHALMESTSKSEEPAYIFVKTEKQLKRLYLKEIQFIEGMENYIVIHTLTSKEIVHLRLKSIQETLPAQIFMQVHRSFIVNLSYVQAIEGNLLIIGEHKIPVSRPLREEVYKSIVNNQLIQR
